Measurements from patent US20160089393A1, “COMPOSITION AND METHODS FOR COMBATING ANTIBACTERIAL RESISTANT BACTERIA” (BLUEBERRY THERAPEUTICS LIMITED, priority 2013, published 2016).

Tests used:
EMRSA-15 [1] = assay: MIC by broth microdilution (antibacterial susceptibility test of EMRSA-15); type: cell-based, methicillin-resistant Staphylococcus aureus (MRSA); settings: Staphylococcus aureus, read-out: MIC of EMRSA-15 to oxacillin
Description: Antibacterial susceptibility test of EMRSA-15 was carried out according to NCCLS guidelines for broth micro broth dilution with modifications. EMRSA-15 was streaked from a −70° C. glycerol stock to Columbia base agar (Oxoid) supplemented with 5% horse blood (Oxoid) and 6 μg/ml oxacillin (Sigma), and incubated for 18-20 h at 33° C. Two to four bacterial colonies were inoculated into 3 ml Mueller Hinton broth (MHB, Oxoid) supplemented with 6 μg/ml oxacillin (Sigma) and incubated for 18-20 h at 33° C. with shaking at 180 rpm. Cultures were adjusted to OD625 0.08-0.1 (equivalent to 0.5 Mcfarland or 1-2×10^8 cfu/ml) with MHB and further diluted 1/50 to achieve a final concentration of 5×10^5 cfu per well. Susceptibility to either oxacillin, PHMB or peptides was tested by adding oxacillin (0-1024 μg/ml in MHB), PHMB (0-512 μg/ml in 1×PBS) or peptide (0-512 μg/ml in 1×PBS) to 75 μl of culture in a final volume of 150 μl per well. Plates were incubated at 33° C. for 24 h and growth was scored visually.

EMRSA-15 [2] = assay: Oxacillin sensitization: growth of EMRSA-15 with peptide, oxacillin and fixed PHMB; type: cell-based, methicillin-resistant Staphylococcus aureus (MRSA); parameters: key: 1 is growth; 0 is no growth; settings: MecA3136 0 uM, PHMB 0.25 μg/ml
Description: (§1) Synergy of PHMB and peptides (MecA3136, MecA3140) were tested by a standard checkerboard method of two-fold dilutions. PHMB and peptide were mixed at appropriate concentrations to a final volume of 30 μl in each well of a 96 well plate, and the mixtures were incubated at 20-22° C. for 30 mins before the addition of culture and oxacillin to a final volume of 150 μl. Plates were incubated and scored as above. FIC indices were calculated for wells without growth and containing the lowest combination of PHMB and peptide as follows: (A/MICA)+(B/MICB)=FICA+FICB=FIC index, where A is concentration of PHMB in combination, MICA is MIC of PHMB alone, B is concentration of peptide in combination, MICB is MIC of peptide alone. A control plate without oxacillin, and control wells of culture with increasing oxcaillin but without PHMB and peptide were included. […]

EMRSA-15 [3] = assay: Checkerboard synergy of PHMB and MecA peptides with oxacillin (FIC index); type: cell-based, methicillin-resistant Staphylococcus aureus (MRSA); settings: Staphylococcus aureus
Description: Synergy of PHMB and peptides (MecA3136, MecA3140) were tested by a standard checkerboard method of two-fold dilutions. PHMB and peptide were mixed at appropriate concentrations to a final volume of 30 μl in each well of a 96 well plate, and the mixtures were incubated at 20-22° C. for 30 mins before the addition of culture and oxacillin to a final volume of 150 μl. Plates were incubated and scored as above. FIC indices were calculated for wells without growth and containing the lowest combination of PHMB and peptide as follows: (A/MICA)+(B/MICB)=FICA+FICB=FIC index, where A is concentration of PHMB in combination, MICA is MIC of PHMB alone, B is concentration of peptide in combination, MICB is MIC of peptide alone. A control plate without oxacillin, and control wells of culture with increasing oxcaillin but without PHMB and peptide were included.

EMRSA-15 [4] = assay: Oxacillin sensitization: growth of EMRSA-15 with peptide, oxacillin and fixed PHMB; type: cell-based, methicillin-resistant Staphylococcus aureus (MRSA); parameters: key: 1 indicates growth; 0 indicates no growth; settings: PHMB 1 ug/ml
Description: as §1

EMRSA-15 [5] = assay: as above; type: cell-based, methicillin-resistant Staphylococcus aureus (MRSA)
Description: as §1

[6] = target: T1, MecA (Penicillin binding protein 2A, PBP2A) (Staphylococcus aureus, UniProt P07944); assay: In vitro binding to MecA and block of oxacillin binding; parameters: species or system methicillin-resistant Staphylococcus aureus (MRSA)
T1 construct: The primers were designed so that the first 23 amino acids at the N terminus were deleted; GST (N, cleaved yes); primer-encoded linker LEVLFQGP-M (my own translation of the forward primer); made in house; host or cells: Escherichia coli BL21(DE3)
Description: For inhibitor screening recombinantly expressed and purified PBP2a is immobilised using an affinity tag to the surface of the wells of a microtiter plate. The wells are then incubated with serially diluted solutions of the peptide aptamer or indeed any possible inhibitor of PBP2a, plus a PBP2a substrate, such as BIO-AMP (Bobba et al. 2011) at a fixed concentration in PBS. After approximately 15 min, the binding reactions are stopped, and the plates were developed as described (Bobba et al. 2011). The background levels of fluorescence from control reactions are subtracted and then the inhibitor binding data are calculated and plotted to determine the Ki^app of binding.

T1 sequence (P07944 24-670): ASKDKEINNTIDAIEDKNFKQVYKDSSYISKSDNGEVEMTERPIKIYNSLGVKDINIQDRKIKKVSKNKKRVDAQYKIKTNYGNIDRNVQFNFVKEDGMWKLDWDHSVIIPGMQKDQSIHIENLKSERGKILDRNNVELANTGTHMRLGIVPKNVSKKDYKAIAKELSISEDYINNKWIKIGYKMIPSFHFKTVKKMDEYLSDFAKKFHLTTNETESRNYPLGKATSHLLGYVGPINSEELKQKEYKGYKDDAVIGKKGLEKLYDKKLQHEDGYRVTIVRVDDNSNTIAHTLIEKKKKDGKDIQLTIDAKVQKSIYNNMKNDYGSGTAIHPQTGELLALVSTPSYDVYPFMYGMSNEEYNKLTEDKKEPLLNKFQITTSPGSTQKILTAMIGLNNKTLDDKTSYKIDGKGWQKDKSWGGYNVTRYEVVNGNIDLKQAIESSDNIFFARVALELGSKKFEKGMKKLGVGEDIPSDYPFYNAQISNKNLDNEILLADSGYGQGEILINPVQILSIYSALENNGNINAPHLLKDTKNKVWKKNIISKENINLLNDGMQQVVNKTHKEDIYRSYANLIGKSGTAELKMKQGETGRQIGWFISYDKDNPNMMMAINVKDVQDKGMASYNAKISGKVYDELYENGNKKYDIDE

For `Cc1onc(-c2ccccc2)c1C(=O)N[C@@H]1C(=O)N2[C@@H]1SC(C)(C)[C@@H]2C(=O)O` [Oxacillin, oxacillin, reference compound], the MIC (EMRSA-15 [1]; MHB + 0.25 μg/ml PHMB) was 256 µg/mL, the MIC (EMRSA-15 [1]; MHB + 176 μg/ml MecA3136) was 128 µg/mL and the MIC (EMRSA-15 [1]; MHB + 176 μg/ml MecA3140) was 128 µg/mL. For the same molecule, the MIC (EMRSA-15 [1]; MHB) was 128 µg/mL, the “Growth of EMRSA-15” value (EMRSA-15 [2]; oxacillin 16 ug/ml) was 1 and the “Growth of EMRSA-15” value (EMRSA-15 [2]; oxacillin 32 ug/ml) was 1. The “Growth of EMRSA-15” value (EMRSA-15 [2]; oxacillin 64 ug/ml) was 1, the “Growth of EMRSA-15” value (EMRSA-15 [2]; oxacillin 128 ug/ml) was 1 and the “Growth of EMRSA-15” value (EMRSA-15 [2]; oxacillin 256 ug/ml) was 0. For the same molecule, the MIC (EMRSA-15 [3]; oxacillin alone, checkerboard set of experiments) was 256 µg/mL, the MIC (EMRSA-15 [3]; with PHMB and MecA3136 at certain concentrations) was 516 µg/mL and the “Growth of EMRSA-15” value (EMRSA-15 [4]; E1 0 ug/ml, oxacillin 8 ug/ml) was 1. For the same molecule, the “Growth of EMRSA-15” value (EMRSA-15 [4]; E1 0 ug/ml, oxacillin 16 ug/ml) was 1, the “Growth of EMRSA-15” value (EMRSA-15 [4]; E1 0 ug/ml, oxacillin 32 ug/ml) was 1 and the “Growth of EMRSA-15” value (EMRSA-15 [4]; E1 0 ug/ml, oxacillin 64 ug/ml) was 1. The “Growth of EMRSA-15” value (EMRSA-15 [4]; E1 0 ug/ml, oxacillin 128 ug/ml) was 0, the “Growth of EMRSA-15” value (EMRSA-15 [4]; HIW 0 ug/ml, oxacillin 16 ug/ml) was 1 and the “Growth of EMRSA-15” value (EMRSA-15 [4]; HIW 0 ug/ml, oxacillin 32 ug/ml) was 1. For the same molecule, the “Growth of EMRSA-15” value (EMRSA-15 [4]; HIW 0 ug/ml, oxacillin 64 ug/ml) was 0.

B1: E1: MecA (PBP2A) binding peptide aptamer, Sequence ID No. 4; different scaffold to MecA3136 and MecA3140 (protein)
chain: ASAATGVRAVPGNENSLEIEELARFAVDEHNKKENALLEFVRVVKAKEQHWKAKLGHDTMYYLTLEAKDGGKKKLYEAKVWVKLIPTKDFHLNFKELQEFKPVGDAAAAHHHHHH
modifications: Peptide sequence E1
notes: different scaffold to MecA3136 and MecA3140
For B1, the “effect during the assay” value (EMRSA-15 [5]; oxacillin and 1 ug/ml PHMB) was “Sequence E1 is a different scaffold to MecA3136 and MecA3140, but in Table 11 shows a modest effect during the assay”, the “enhancement of oxacillin activity” value (EMRSA-15 [5]; with PHMB) was “Clear enhancement of oxacillin activity” and the “binding to MecA and block of oxacillin binding” value [6] was “bind to MecA and block oxycillin binding to MecA”. For the same molecule, the “Growth of EMRSA-15” value (EMRSA-15 [4]; E1 5 ug/ml, oxacillin 0 ug/ml) was 1, the “Growth of EMRSA-15” value (EMRSA-15 [4]; E1 5 ug/ml, oxacillin 8 ug/ml) was 1 and the “Growth of EMRSA-15” value (EMRSA-15 [4]; E1 5 ug/ml, oxacillin 16 ug/ml) was 1. The “Growth of EMRSA-15” value (EMRSA-15 [4]; E1 5 ug/ml, oxacillin 32 ug/ml) was 1, the “Growth of EMRSA-15” value (EMRSA-15 [4]; E1 5 ug/ml, oxacillin 64 ug/ml) was 0 and the “Growth of EMRSA-15” value (EMRSA-15 [4]; E1 5 ug/ml, oxacillin 128 ug/ml) was 0. The “Growth of EMRSA-15” value (EMRSA-15 [4]; E1 10 ug/ml, oxacillin 0 ug/ml) was 1, the “Growth of EMRSA-15” value (EMRSA-15 [4]; E1 10 ug/ml, oxacillin 8 ug/ml) was 1 and the “Growth of EMRSA-15” value (EMRSA-15 [4]; E1 10 ug/ml, oxacillin 16 ug/ml) was 1. For the same molecule, the “Growth of EMRSA-15” value (EMRSA-15 [4]; E1 10 ug/ml, oxacillin 32 ug/ml) was 1, the “Growth of EMRSA-15” value (EMRSA-15 [4]; E1 10 ug/ml, oxacillin 64 ug/ml) was 0 and the “Growth of EMRSA-15” value (EMRSA-15 [4]; E1 10 ug/ml, oxacillin 128 ug/ml) was 0. The “Growth of EMRSA-15” value (EMRSA-15 [4]; E1 20 ug/ml, oxacillin 0 ug/ml) was 1, the “Growth of EMRSA-15” value (EMRSA-15 [4]; E1 20 ug/ml, oxacillin 8 ug/ml) was 1 and the “Growth of EMRSA-15” value (EMRSA-15 [4]; E1 20 ug/ml, oxacillin 16 ug/ml) was 1. The “Growth of EMRSA-15” value (EMRSA-15 [4]; E1 20 ug/ml, oxacillin 32 ug/ml) was 0, the “Growth of EMRSA-15” value (EMRSA-15 [4]; E1 20 ug/ml, oxacillin 64 ug/ml) was 0 and the “Growth of EMRSA-15” value (EMRSA-15 [4]; E1 20 ug/ml, oxacillin 128 ug/ml) was 0.
